Source: patent US20130345401

Test system: T1, human fibrinogen produced in a silkworm (recombinant fibrinogen extracted from cocoons of β42-3×α/γ106-2×IM transgenic silkworms)
T1 sequence 1: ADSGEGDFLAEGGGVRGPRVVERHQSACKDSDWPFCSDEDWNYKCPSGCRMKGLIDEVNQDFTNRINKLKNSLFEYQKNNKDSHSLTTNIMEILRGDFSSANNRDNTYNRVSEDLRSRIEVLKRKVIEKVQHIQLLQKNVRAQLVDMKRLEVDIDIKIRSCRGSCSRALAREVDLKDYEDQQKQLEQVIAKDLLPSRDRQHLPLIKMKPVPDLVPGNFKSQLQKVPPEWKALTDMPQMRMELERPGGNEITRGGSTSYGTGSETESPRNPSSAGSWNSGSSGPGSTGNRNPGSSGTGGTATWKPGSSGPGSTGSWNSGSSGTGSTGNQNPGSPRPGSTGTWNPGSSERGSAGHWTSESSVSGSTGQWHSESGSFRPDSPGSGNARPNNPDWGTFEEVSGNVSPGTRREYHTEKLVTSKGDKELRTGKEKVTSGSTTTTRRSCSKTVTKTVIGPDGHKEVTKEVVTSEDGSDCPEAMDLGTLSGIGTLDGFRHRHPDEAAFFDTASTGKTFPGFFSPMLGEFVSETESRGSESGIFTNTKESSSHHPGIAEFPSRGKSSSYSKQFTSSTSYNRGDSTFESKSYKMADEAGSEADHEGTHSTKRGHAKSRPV
T1 sequence 2: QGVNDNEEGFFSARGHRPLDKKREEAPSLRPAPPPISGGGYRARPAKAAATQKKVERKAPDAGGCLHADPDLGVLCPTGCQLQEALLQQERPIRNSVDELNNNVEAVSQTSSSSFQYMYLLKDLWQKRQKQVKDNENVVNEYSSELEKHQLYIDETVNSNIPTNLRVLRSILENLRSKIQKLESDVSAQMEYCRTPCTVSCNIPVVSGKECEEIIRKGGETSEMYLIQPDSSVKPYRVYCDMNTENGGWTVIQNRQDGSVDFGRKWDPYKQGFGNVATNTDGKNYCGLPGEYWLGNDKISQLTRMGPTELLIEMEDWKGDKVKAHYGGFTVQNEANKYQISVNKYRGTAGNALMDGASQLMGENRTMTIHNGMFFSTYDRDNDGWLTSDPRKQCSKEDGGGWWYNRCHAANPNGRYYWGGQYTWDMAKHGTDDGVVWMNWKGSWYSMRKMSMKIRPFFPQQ
T1 sequence 3: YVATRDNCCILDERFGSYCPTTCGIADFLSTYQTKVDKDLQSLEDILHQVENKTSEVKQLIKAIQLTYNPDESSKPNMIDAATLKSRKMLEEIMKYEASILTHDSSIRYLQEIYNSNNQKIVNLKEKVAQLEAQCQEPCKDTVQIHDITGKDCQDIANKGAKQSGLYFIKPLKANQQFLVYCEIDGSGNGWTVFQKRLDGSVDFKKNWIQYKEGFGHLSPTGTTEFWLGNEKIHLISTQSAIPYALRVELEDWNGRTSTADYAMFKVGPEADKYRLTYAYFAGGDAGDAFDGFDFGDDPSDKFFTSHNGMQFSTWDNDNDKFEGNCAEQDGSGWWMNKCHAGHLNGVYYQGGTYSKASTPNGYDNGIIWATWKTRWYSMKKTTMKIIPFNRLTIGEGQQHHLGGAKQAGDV

## thrombin (Calbiochem)
  coagulation (fibrin clot formation): viscosity of the liquid after incubation with 10 U/ml thrombin at 37° C. for 1 hour: viscosity of the liquid increased to an extent where, when the liquid was sucked into a pipette, the liquid hardly dropped from the tip of the pipette
